Here are results for 28 sequences from the supplement of paper PMC9428881.

± gives the standard error.

A short description of this data set: background-corrected fluorescence of 3'-dye-labeled ssDNA relative to brightest sequence (3'-GCGCG) (fraction); higher = brighter dye fluorescence (less quenching). The method, then: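 Single-stranded DNA is synthesized in situ on glass microarrays by 5'->3' photolithographic synthesis, with a Cy3 or Cy5 phosphoramidite coupled at the 3' end next to all 1024 permuted pentamers P1-P5. The construct is 5'-T5-(ACGT minus P5..P1 trinucleotides)-T15-P5P4P3P2P1-dye-3'; the dye is a 3' terminal modification, not part of the sequence. Arrays were scanned at 532 nm (Cy3) or 635 nm (Cy5), background from unlabeled oligos was subtracted, and values are averaged over 10 replicate features per array and at least 3 independent syntheses.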

With “TTTTTTGATCATGCTGATCATTTTTTTTTTTTTTTCGACG [GCAGC]”, the background-corrected fluorescence was 0.602 ± 0.013 (dye: Cy3 (3' terminal)) and 0.491 ± 0.024 (dye: Cy5 (3' terminal)).
“TTTTTGCATCAGCATGCTCATTTTTTTTTTTTTTTTGTAG [GATGT]” returned a background-corrected fluorescence (dye: Cy3 (3' terminal)) of 0.535 ± 0.015 and a background-corrected fluorescence (dye: Cy5 (3' terminal)) of 0.443 ± 0.064.
The matching figures for “TTTTTGCATGATGATCATGATTTTTTTTTTTTTTTTCCGC [CGCCT]”: 0.504 ± 0.022 and 0.412 ± 0.025.
For “TTTTTGCAGCATGATCATGATTTTTTTTTTTTTTTTTCGC [CGCTT]”, in that order: 0.503 ± 0.031 and 0.406 ± 0.088.
For “TTTTTTGATGATGAGCATGATTTTTTTTTTTTTTTCCCTC [CTCCC]”, in that order: 0.346 ± 0.012 and 0.26 ± 0.019.
As to “TTTTTGCATGATGATGATGATTTTTTTTTTTTTTTTCCCC [CCCCT]”, the background-corrected fluorescence came to 0.33 ± 0.022 (dye: Cy3 (3' terminal)) and 0.243 ± 0.015 (dye: Cy5 (3' terminal)).
“TTTTTTCATGCTCAGCATGCTTTTTTTTTTTTTTTGAGTA [ATGAG]” came in with a background-corrected fluorescence (dye: Cy3 (3' terminal)) of 0.603 ± 0.026 and a background-corrected fluorescence (dye: Cy5 (3' terminal)) of 0.486 ± 0.035.
For “TTTTTGCATCAGCATCATGCTTTTTTTTTTTTTTTTGTGA [AGTGT]”, in that order: 0.68 ± 0.026 and 0.564 ± 0.039.
“TTTTTTGAGCAGCATGCGCATTTTTTTTTTTTTTTCTTAT [TATTC]”: the background-corrected fluorescence was 0.513 ± 0.029 (dye: Cy3 (3' terminal)) and 0.369 ± 0.025 (dye: Cy5 (3' terminal)).
Sequence “TTTTTTGCTGCGCATGCTGATTTTTTTTTTTTTTTAATAC [CATAA]” came in with a background-corrected fluorescence (dye: Cy3 (3' terminal)) of 0.453 ± 0.011 and a background-corrected fluorescence (dye: Cy5 (3' terminal)) of 0.317 ± 0.019.
As to “TTTTTTGCTCATGATGATGCTTTTTTTTTTTTTTTAGCCA [ACCGA]”, the background-corrected fluorescence reads like this: (dye: Cy3 (3' terminal)) 0.5 ± 0.028; (dye: Cy5 (3' terminal)) 0.394 ± 0.023.
With “TTTTTTGATCAGCATGCTGCTTTTTTTTTTTTTTTCGTAA [AATGC]”, the background-corrected fluorescence by setting is: (dye: Cy3 (3' terminal)) 0.553 ± 0.045; (dye: Cy5 (3' terminal)) 0.428 ± 0.024.
For “TTTTTGCATGATGATGATCATTTTTTTTTTTTTTTTCCCG [GCCCT]”, in that order: 0.509 ± 0.013 and 0.381 ± 0.04.
As to “TTTTTTCATCATGATGAGCATTTTTTTTTTTTTTTGGCCT [TCCGG]”, the background-corrected fluorescence reads like this: (dye: Cy3 (3' terminal)) 0.4958 ± 0.0048; (dye: Cy5 (3' terminal)) 0.386 ± 0.035.
The matching figures for “TTTTTGCATGCTGATGATGCTTTTTTTTTTTTTTTTACCA [ACCAT]”: 0.43 ± 0.017 and 0.364 ± 0.02.
The matching figures for “TTTTTTGCTGATGCTGCTCATTTTTTTTTTTTTTTACAAG [GAACA]”: 0.53 ± 0.015 and 0.425 ± 0.021.
Regarding “TTTTTGCAGCATCATGCTGCTTTTTTTTTTTTTTTTTGAA [AAGTT]”, the background-corrected fluorescence turned out to be 0.634 ± 0.019 (dye: Cy3 (3' terminal)) and 0.527 ± 0.03 (dye: Cy5 (3' terminal)).
Take “TTTTTTCATGATGCTCATGCTTTTTTTTTTTTTTTGCAGA [AGACG]”: the background-corrected fluorescence runs as follows: (dye: Cy3 (3' terminal)) 0.682 ± 0.017; (dye: Cy5 (3' terminal)) 0.552 ± 0.035.
For “TTTTTTGATGATGCTCATGCTTTTTTTTTTTTTTTCCAGA [AGACC]”, in that order: 0.635 ± 0.027 and 0.527 ± 0.028.
Consider “TTTTTTCATGCTGAGCAGCATTTTTTTTTTTTTTTGACTT [TTCAG]”, for which the background-corrected fluorescence stood at 0.501 ± 0.016 (dye: Cy3 (3' terminal)) and 0.401 ± 0.021 (dye: Cy5 (3' terminal)).
The matching figures for “TTTTTTGAGCATCATCATGCTTTTTTTTTTTTTTTCTGGA [AGGTC]”: 0.69 ± 0.023 and 0.605 ± 0.047.
For “TTTTTTCATGCGCATCAGCATTTTTTTTTTTTTTTGATGT [TGTAG]”, in that order: 0.653 ± 0.025 and 0.478 ± 0.04.
Regarding “TTTTTTGCTCATCATGCTGATTTTTTTTTTTTTTTAGGAC [CAGGA]”, the background-corrected fluorescence is 0.479 ± 0.014 (dye: Cy3 (3' terminal)) and 0.383 ± 0.033 (dye: Cy5 (3' terminal)).
For “TTTTTTGCTGATCATGCGCATTTTTTTTTTTTTTTACGAT [TAGCA]”, in that order: 0.519 ± 0.035 and 0.429 ± 0.045.
As to “TTTTTTGATGCTCATCAGCATTTTTTTTTTTTTTTCAGGT [TGGAC]”, the background-corrected fluorescence is, setting by setting: (dye: Cy3 (3' terminal)) 0.693 ± 0.045; (dye: Cy5 (3' terminal)) 0.534 ± 0.037.
For “TTTTTTCATGCTGATGAGCATTTTTTTTTTTTTTTGACCT [TCCAG]”, the background-corrected fluorescence runs as follows: (dye: Cy3 (3' terminal)) 0.453 ± 0.026; (dye: Cy5 (3' terminal)) 0.34 ± 0.026.
The matching figures for “TTTTTTGAGCATCAGCATCATTTTTTTTTTTTTTTCTGTG [GTGTC]”: 0.559 ± 0.039 and 0.425 ± 0.021.
For “TTTTTGCAGCAGCAGCATCATTTTTTTTTTTTTTTTTTTG [GTTTT]”, in that order: 0.461 ± 0.0051 and 0.334 ± 0.032.
